{"source": "IntAct's records for PubMed 11454208", "parents": {"B1": {"name": "Transcriptional repressor OPI1 (Saccharomyces cerevisiae), P21957 (parent)", "chain": "MSENQRLGLSEEEVEAAEVLGVLKQSCRQKSQPSEDVSQADKMPASESSTTPLNILDRVSNKIISNVVTFYDEINTNKRPLKSIGRLLDDDDDEHDDYDYNDDEFFTNKRQKLSRAIAKGKDNLKEYKLNMSIESKKRLVTCLHLLKLANKQLSDKISCLQDLVEKEQVHPLHKQDGNARTTTGAGEDETSSDEDDDDEEFFDASEQVNASEQSIVVKMEVVGTVKKVYSLISKFTANSLPEPARSQVRESLLNLPTNWFDSVHSTSLPHHASFHYANCEEQKVEQQQQQQQQQQQQQLLQQQLLQQQQQKRNKDGDDSASPSSSVTANGKVLILAKESLEMVRNVMGVVDSTLGKAEEWVKQKQEVKEMIRERFLQQQQQYRQQQQKDGNYVKPSQDNVDSKD", "partner": "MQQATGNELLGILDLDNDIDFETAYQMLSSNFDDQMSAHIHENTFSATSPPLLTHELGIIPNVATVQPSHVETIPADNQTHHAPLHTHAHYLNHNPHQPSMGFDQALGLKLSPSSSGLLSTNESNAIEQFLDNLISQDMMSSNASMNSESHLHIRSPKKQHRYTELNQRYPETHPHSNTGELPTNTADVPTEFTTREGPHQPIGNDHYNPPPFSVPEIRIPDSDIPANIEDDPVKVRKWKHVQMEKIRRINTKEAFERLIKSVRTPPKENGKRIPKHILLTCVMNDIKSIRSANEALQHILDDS"}}}
{"variants_of": "B1", "conditions": "with ino2_yeast INO2, P26798"}
{"variant": "MSENQRLGLSEEEVEAAEVLGVLKQSCRQKSQPSEDVSQADKMPASESSTTPLNILDRVSNKIISNVVTFYDEINTNKRPLKSIGRLLDDDDDEHDDYDYNDDEFFTNKRQKLSRAIAKGKDNLKEYKLNMSIESKKRLVTCLHLLKLANKQLSDKISCAQDLVEKEQVHPLHKQDGNARTTTGAGEDETSSDEDDDDEEFFDASEQVNASEQSIVVKMEVVGTVKKVYSLISKFTANSLPEPARSQVRESLLNLPTNWFDSVHSTSLPHHASFHYANCEEQKVEQQQQQQQQQQQQQLLQQQLLQQQQQKRNKDGDDSASPSSSVTANGKVLILAKESLEMVRNVMGVVDSTLGKAEEWVKQKQEVKEMIRERFLQQQQQYRQQQQKDGNYVKPSQDNVDSKD", "note": "[L160A]", "effect of a mutation on the interaction": "decreasing interaction"}
